The labels stand for the following.
B2: Strep-tagged GapA lacking SR1P (enzyme, B. subtilis, UniProt P09124 1-335, looked up)
chain: MAVKVGINGFGRIGRNVFRAALNNPEVEVVAVNDLTDANMLAHLLQYDSVHGKLDAEVSVDGNNLVVNGKTIEVSAERDPAKLSWGKQGVEIVVESTGFFTKRADAAKHLEAGAKKVIISAPANEEDITIVMGVNEDKYDAANHDVISNASCTTNCLAPFAKVLNDKFGIKRGMMTTVHSYTNDQQILDLPHKDYRRARAAAENIIPTSTGAAKAVSLVLPELKGKLNGGAMRVPTPNVSLVDLVAELNQEVTAEEVNAALKEAAEGDLKGILGYSEEPLVSGDYNGNKNSSTIDALSTMVMEGSMVKVISWYDNESGYSNRVVDLAAYIAKKGL
B4: GapA_(Strep)/SR1P (Strep-tagged GapA carrying SR1P) (complex)
chain 1: MAVKVGINGFGRIGRNVFRAALNNPEVEVVAVNDLTDANMLAHLLQYDSVHGKLDAEVSVDGNNLVVNGKTIEVSAERDPAKLSWGKQGVEIVVESTGFFTKRADAAKHLEAGAKKVIISAPANEEDITIVMGVNEDKYDAANHDVISNASCTTNCLAPFAKVLNDKFGIKRGMMTTVHSYTNDQQILDLPHKDYRRARAAAENIIPTSTGAAKAVSLVLPELKGKLNGGAMRVPTPNVSLVDLVAELNQEVTAEEVNAALKEAAEGDLKGILGYSEEPLVSGDYNGNKNSSTIDALSTMVMEGSMVKVISWYDNESGYSNRVVDLAAYIAKKGL
chain 2: MGTIVCQDCNEAIHYFEDEKVTTLYGTCCGQCQCPVDEE

Experiment [1] addresses B2. Briefly: pull-down.
Experiment [2] deals with B4. Briefly: pull-down.
The target in experiment [3] is T1, His-tagged RNase J1 (B. subtilis, UniProt Q45493 1-555). Briefly: far-Western, overlay or dot blot.
Experiment [4] deals with T1, His-tagged RNase J1. The experiment can be described thus: far-Western, overlay or dot blot. This is another data set of the same source.

Like-named read-outs stand apart in the source and are kept apart here.

T1 sequence (Q45493 whole entry): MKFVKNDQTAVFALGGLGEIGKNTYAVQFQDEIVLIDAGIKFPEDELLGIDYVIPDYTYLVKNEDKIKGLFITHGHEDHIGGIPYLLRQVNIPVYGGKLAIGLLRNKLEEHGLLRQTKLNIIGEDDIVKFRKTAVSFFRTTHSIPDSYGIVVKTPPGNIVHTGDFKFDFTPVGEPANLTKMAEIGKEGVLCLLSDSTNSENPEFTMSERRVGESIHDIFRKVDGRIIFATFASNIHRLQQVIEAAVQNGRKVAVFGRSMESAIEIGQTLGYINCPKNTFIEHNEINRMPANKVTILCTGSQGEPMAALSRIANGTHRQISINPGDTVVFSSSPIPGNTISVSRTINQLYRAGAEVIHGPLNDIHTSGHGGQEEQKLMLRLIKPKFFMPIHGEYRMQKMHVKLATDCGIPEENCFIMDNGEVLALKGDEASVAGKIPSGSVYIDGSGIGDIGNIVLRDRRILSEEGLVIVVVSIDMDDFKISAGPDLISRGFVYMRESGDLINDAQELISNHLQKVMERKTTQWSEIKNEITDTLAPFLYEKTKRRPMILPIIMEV

B1: RNase J1 (enzyme)
chain: not shown
As to B1, the “GapA-RNase J1 ratio” value in experiment [1] is approximately 200 GapA per RNase J1. Further, the “GapA/SR1P-RNase J1 ratio” value in experiment [2] was determined as 80 GapA/SR1P per RNase J1.

With B2, the binding result with His-tagged RNase J1 [3] is “binds”.

B3: untagged GapA (enzyme, UniProt P09124 1-335, looked up)
chain: MAVKVGINGFGRIGRNVFRAALNNPEVEVVAVNDLTDANMLAHLLQYDSVHGKLDAEVSVDGNNLVVNGKTIEVSAERDPAKLSWGKQGVEIVVESTGFFTKRADAAKHLEAGAKKVIISAPANEEDITIVMGVNEDKYDAANHDVISNASCTTNCLAPFAKVLNDKFGIKRGMMTTVHSYTNDQQILDLPHKDYRRARAAAENIIPTSTGAAKAVSLVLPELKGKLNGGAMRVPTPNVSLVDLVAELNQEVTAEEVNAALKEAAEGDLKGILGYSEEPLVSGDYNGNKNSSTIDALSTMVMEGSMVKVISWYDNESGYSNRVVDLAAYIAKKGL
On to B3, for which the binding result in the experiment with His-tagged RNase J1 [3] is given as “binds”.

Take B4: the binding result with His-tagged RNase J1 [4] is given as “binds”.

The record behind these values is PMC5013986 (RNA Biology, 2016).
